T1: MBP-PHL4-His (Arabidopsis thaliana? (Columbia-0?), UniProt Q8GXC2 1-397)
T1 sequence: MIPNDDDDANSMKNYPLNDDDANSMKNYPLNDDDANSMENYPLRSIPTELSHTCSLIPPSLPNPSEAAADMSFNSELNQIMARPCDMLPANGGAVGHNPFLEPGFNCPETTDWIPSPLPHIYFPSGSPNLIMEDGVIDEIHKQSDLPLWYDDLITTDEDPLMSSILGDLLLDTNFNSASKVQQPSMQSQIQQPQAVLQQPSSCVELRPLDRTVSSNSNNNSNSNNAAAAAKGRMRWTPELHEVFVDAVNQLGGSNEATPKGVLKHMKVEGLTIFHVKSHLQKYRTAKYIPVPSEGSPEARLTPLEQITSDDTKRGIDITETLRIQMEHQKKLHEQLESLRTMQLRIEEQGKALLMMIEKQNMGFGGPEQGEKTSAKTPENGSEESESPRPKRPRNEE

B1: 2xP1BS probe (dsDNA)
DNA 1: ATTAACGAATATTCCGTACAATTAACGAATATTCCGTACA
DNA 2: TGTACGGAATATTCGTTAATTGTACGGAATATTCGTTAAT
B2: 2xP1BS unlabeled competitor (dsDNA)
DNA 1: B1 DNA 1
DNA 2: B1 DNA 2

How the values were obtained:
MBP-PHL4-His [1] = target: T1, MBP-PHL4-His; experiment: EMSA; 4 ug protein, 10 fmol probe; EMSA as described by Sun et al. (2016); buffer, salt, pH and temperature not given; 4 ug MBP-PHL4, 10 fmol biotin probe; details: protein: recombinant; tags: N-terminal MBP; C-terminal 6xHis; chain copies: 2; label: biotin (on F strand); blunt
MBP-PHL4-His [2] = target: T1, MBP-PHL4-His; experiment: competition; unlabeled probe at 200:1, 800:1 and 1200:1 molar excess over labeled probe; EMSA as described by Sun et al. (2016); buffer, salt, pH and temperature not given; 4 ug MBP-PHL4, 10 fmol biotin probe; details: protein: recombinant; tags: N-terminal MBP; C-terminal 6xHis; chain copies: 2; blunt

Row | Binder | binding result (MBP-PHL4-His [1]) | binding result (MBP-PHL4-His [2])
1 | B1 | binds | 
2 | B2 |  | binds

— paper PMC6174329, “Functional Characterization of Arabidopsis PHL4 in Plant Response to Phosphate Starvation”
